The results in this text go back to patent US20240116985A1, “STAPLED PEPTIDES AND METHODS THEREOF” (priority 2020, published 2024).

Starred links: 1 amine or outer side, 2 acyl side, 3 side chain; linkers in the order of their positions; H or OH if unused. Positions of bridges follow the written chain, without caps; N, C: chain ends. Non-standard residues stand in square brackets, D forms with d. Primed or numbered codes have the meaning given here. PyrS2″ = (S)-3-amino-1-((pent-4-en-1-yloxy)carbonyl)pyrrolidine-3-carboxylic acid (stapling residue), C=CCCCOC(=O)N1CC[C@@](N[*:1])(C(=O)[*:2])C1; B5(4) = 2,2-bis(4-pentenyl)glycine = 2-amino-2-(pent-4-en-1-yl)hept-6-enoic acid (stitching residue), C=CCCCC(CCCC=C)(N[*:1])C(=O)[*:2]; B5(5) = 2,2-bis(4-pentenyl)glycine, 2-amino-2-(pent-4-en-1-yl)hept-6-enoic acid (stitching residue), C=CCCCC(CCCC=C)(N[*:1])C(=O)[*:2]; TfeGA = (S)-2-amino-3-((carboxymethyl)(2,2,2-trifluoroethyl)amino)propanoic acid, O=C([C@H](CN(CC(=O)[*:3])CC(F)(F)F)N[*:1])[*:2]; (Pip)GlnR = (S)-2-amino-5-oxo-5-(piperidin-1-yl)pentanoic acid, O=C(CC[C@H](N[*:1])C(=O)[*:2])N1CCCCC1; B5(3) = 2,2-bis(4-pentenyl)glycine (stitching residue), C=CCCCC(CCCC=C)(N[*:1])C(=O)[*:2]; Phe(3-COOH) = N[C@@H](Cc1cccc(C(=O)O)c1)C(=O)O; Phe(2-CF3) = N[C@@H](Cc1ccccc1C(F)(F)F)C(=O)O; Bta = N[C@@H](Cc1csc2ccccc12)C(=O)O; Lys(iPr) = CC(C)NCCCC[C@H](N)C(=O)O; αAllylPro = C=CC[C@@]1(C(=O)O)CCCN1; tBuAla = CC(C)(C)C[C@H](N)C(=O)O; 3Thi = N[C@@H](Cc1ccsc1)C(=O)O; 2F3MeF(3) = Phe analogue; Abu = CC[C@H](N)C(=O)O; Aib = CC(C)(N)C(=O)O

One assay deals with full-length beta-Catenin (Uniprot ID P35222) (Homo sapiens (Human)) (UniProt P35222). Description: fluorescence polarization competition; full-length beta-catenin, competitor 5FAM-TCF4(10-53). On the technique in general: Polarisation of emitted light reports the rotation of a fluorescent probe.
Target sequence in this assay (P35222 whole entry): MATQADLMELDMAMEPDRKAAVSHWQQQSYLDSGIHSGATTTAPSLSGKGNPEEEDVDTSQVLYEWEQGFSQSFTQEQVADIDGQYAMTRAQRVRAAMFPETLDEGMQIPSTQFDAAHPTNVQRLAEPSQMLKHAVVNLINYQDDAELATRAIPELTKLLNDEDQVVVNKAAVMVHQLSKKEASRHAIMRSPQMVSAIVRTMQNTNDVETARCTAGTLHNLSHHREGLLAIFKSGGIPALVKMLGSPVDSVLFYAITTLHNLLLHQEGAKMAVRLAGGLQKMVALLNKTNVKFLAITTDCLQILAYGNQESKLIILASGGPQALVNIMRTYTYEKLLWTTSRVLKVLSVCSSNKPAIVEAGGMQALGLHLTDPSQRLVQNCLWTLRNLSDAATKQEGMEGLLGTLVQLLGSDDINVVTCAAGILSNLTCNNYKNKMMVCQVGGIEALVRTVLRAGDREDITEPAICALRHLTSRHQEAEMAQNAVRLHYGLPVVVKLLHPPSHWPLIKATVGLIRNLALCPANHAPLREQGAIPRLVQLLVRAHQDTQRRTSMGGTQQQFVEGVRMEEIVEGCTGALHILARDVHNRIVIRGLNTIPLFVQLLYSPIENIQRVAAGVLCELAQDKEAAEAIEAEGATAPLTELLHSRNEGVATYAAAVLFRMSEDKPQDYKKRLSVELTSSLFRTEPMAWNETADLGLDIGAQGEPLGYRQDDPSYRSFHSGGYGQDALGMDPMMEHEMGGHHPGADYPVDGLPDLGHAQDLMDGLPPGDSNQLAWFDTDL
As for Ac-[αAllylPro]D[tBuAla][B5(4)]D[TfeGA]AAFT[PyrS2″][3Thi][Bta]L-NH2 (staple 1-4, 4-11; also: -CH=CH- in each staple reduced to -CH2-CH2-) [I-1754], the IC50 was determined as 660 nM. This lies in the sub-micromolar range.

Ac-[αAllylPro]D[tBuAla][B5(5)]D[TfeGA][Lys(iPr)]AFT[PyrS2″][3Thi][Bta]V-NH2 (staple 1-4, 4-11) [I-1764] displayed an IC50 of 23 nM.

Ac-[αAllylPro]D[tBuAla][B5(4)]D[TfeGA]AAFT[PyrS2″][3Thi][Bta]F-NH2 (staple 1-4, 4-11; also: -CH=CH- in each staple reduced to -CH2-CH2-) [I-1756]: the IC50 was determined as 329 nM. This IC50 is about 14-fold higher than that of the molecule before.

For the molecule Ac-[αAllylPro]D[tBuAla][B5(4)]D[TfeGA]AAFL[PyrS2″][3Thi][Bta]V-NH2 (staple 1-4, 4-11; not fully specified) [I-1752], the IC50 came out at 87 nM.

Regarding Ac-[αAllylPro]D[tBuAla][B5(4)]D[TfeGA][Lys(iPr)]AFL[PyrS2″][3Thi][Bta]L-NH2 (staple 1-4, 4-11; also: -CH=CH- in each staple reduced to -CH2-CH2-) [I-1765], the IC50 worked out at 667 nM.

Ac-[αAllylPro]D[tBuAla][B5(5)]D[TfeGA][Lys(iPr)]AFL[PyrS2″][3Thi][Bta]F-NH2 (staple 1-4, 4-11) [I-1761] came in with an IC50 of 39 nM.

Consider Ac-[αAllylPro]D[tBuAla][B5(4)]D[TfeGA]AAFL[PyrS2″][3Thi][Bta]L-NH2 (staple 1-4, 4-11; also: -CH=CH- in each staple reduced to -CH2-CH2-) [I-1753], for which the IC50 worked out at 802 nM.

The molecule Ac-[αAllylPro]D[tBuAla][B5(4)]D[TfeGA][Lys(iPr)]AFL[PyrS2″][3Thi][Bta]F-NH2 (staple 1-4, 4-11; also: -CH=CH- in each staple reduced to -CH2-CH2-) [I-1767] gave a concentration for half-maximal inhibition (IC50) of 327 nM.

Ac-[αAllylPro]D[tBuAla][B5(4)]D[TfeGA]AAFL[PyrS2″][3Thi][Bta]V-NH2 (staple 1-4, 4-11; not fully specified) [I-1751] registered an IC50 of 104 nM.

In turn, Ac-[αAllylPro]D[tBuAla][B5(5)]D[TfeGA][Lys(iPr)]AFT[PyrS2″][3Thi][Bta]L-NH2 (staple 1-4, 4-11) [I-1760] registered an IC50 of 32 nM.

Consider Ac-[αAllylPro]D[tBuAla][B5(5)]D[TfeGA]AAFL[PyrS2″][3Thi][Bta]F-NH2 (staple 1-4, 4-11) [I-1750], for which the IC50 came to 104 nM.

As to Ac-[αAllylPro]D[tBuAla][B5(4)]D[TfeGA]AAFL[PyrS2″][3Thi][Bta]F-NH2 (staple 1-4, 4-11; also: -CH=CH- in each staple reduced to -CH2-CH2-) [I-1755], the IC50 is 570 nM.

With Ac-[αAllylPro]D[tBuAla][B5(5)]D[TfeGA]AAFL[PyrS2″][3Thi][Bta]L-NH2 (staple 1-4, 4-11) [I-1748], the IC50 is 141 nM.

The molecule Ac-[αAllylPro]D[tBuAla][B5(4)]D[TfeGA][Lys(iPr)]AFT[PyrS2″][3Thi][Bta]L-NH2 (staple 1-4, 4-11; also: -CH=CH- in each staple reduced to -CH2-CH2-) [I-1766] came in with an IC50 of 267 nM. This IC50 is about 1.9-fold higher than that of the molecule before.

Molecule Ac-[αAllylPro]D[tBuAla][B5(4)]D[TfeGA]AAFL[PyrS2″][3Thi][Bta]V-NH2 (staple 1-4, 4-11; also: -CH=CH- in each staple reduced to -CH2-CH2-) [I-1757] yielded a half-maximal inhibitory concentration (IC50) of 449 nM.

Take Ac-[αAllylPro]D[tBuAla][B5(4)]D[TfeGA]AAFT[PyrS2″][3Thi][Bta]V-NH2 (staple 1-4, 4-11; also: -CH=CH- in each staple reduced to -CH2-CH2-) [I-1758]: the IC50 was 235 nM.

Turning to Ac-[αAllylPro]D[tBuAla][B5(4)]D[TfeGA]AAFL[PyrS2″][3Thi][Bta]F-NH2 (staple 1-4, 4-11; not fully specified) [I-1749], the IC50 came to 145 nM.

The molecule Ac-[αAllylPro]D[tBuAla][B5(5)]D[TfeGA][Lys(iPr)]AFL[PyrS2″][3Thi][Bta]L-NH2 (staple 1-4, 4-11) [I-1759] registered an IC50 of 57 nM.

Ac-[αAllylPro]D[tBuAla][B5(5)]D[TfeGA][Lys(iPr)]AFL[PyrS2″][3Thi][Bta]V-NH2 (staple 1-4, 4-11) [I-1763] registered an IC50 of 52 nM.

Another assay shares this target. Description: fluorescence polarization competition; full-length beta-catenin, 5FAM-TCF4(10-53) probe as competitor.
Target sequence in this assay (P35222 2-781 limits assumed): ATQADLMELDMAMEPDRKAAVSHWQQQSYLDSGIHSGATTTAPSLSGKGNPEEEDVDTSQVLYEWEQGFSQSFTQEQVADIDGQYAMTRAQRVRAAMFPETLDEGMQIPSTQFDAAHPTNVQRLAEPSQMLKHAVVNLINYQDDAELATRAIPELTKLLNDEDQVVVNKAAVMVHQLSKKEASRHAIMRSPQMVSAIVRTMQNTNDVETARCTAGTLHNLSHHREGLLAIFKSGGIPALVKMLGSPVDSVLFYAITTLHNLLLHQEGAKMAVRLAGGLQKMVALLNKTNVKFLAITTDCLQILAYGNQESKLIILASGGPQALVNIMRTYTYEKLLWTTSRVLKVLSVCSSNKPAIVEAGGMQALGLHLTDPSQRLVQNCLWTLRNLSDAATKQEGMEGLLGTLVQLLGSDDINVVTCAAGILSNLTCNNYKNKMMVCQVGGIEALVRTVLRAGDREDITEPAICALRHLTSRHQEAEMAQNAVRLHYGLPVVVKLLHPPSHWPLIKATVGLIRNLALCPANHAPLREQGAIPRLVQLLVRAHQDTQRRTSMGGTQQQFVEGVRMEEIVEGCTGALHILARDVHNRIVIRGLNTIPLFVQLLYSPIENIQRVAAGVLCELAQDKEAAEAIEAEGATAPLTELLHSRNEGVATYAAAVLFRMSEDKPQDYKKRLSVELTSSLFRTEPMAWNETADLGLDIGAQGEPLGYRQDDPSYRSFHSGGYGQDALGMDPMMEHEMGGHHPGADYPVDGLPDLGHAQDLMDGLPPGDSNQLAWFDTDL
Ac-[αAllylPro]D[tBuAla][B5(3)]NT[Aib]AFN[PyrS2″][3Thi][Bta]K-NH2 (staple 1-4, 4-11) [Ac-PL3-Asp-Npg-B5-Asn-Thr-Aib-Ala-Phe-Asn-PyrS2-3Thi-BztA-Lys-NH2] yielded an IC50 of 165 nM.

As to Ac-[αAllylPro]D[tBuAla][B5(5)]D[Phe(3-COOH)][Aib]AF[Abu][PyrS2″][3Thi][Bta][(NHEt)GlnR]A-NH2 (staple 1-4, 4-11) [Ac-PL3-Asp-Npg-B5-Asp-3COOHF-Aib-Ala-Phe-Abu-PyrS2-3Thi-BztA-[NHEt]GlnR-Ala-NH2], the IC50 is 7 nM.

Take Ac-[αAllylPro]D[tBuAla][B5(5)]D[Phe(3-COOH)]AAFL[PyrS2″][Phe(2-CF3)][Bta][(NHEt)GlnR]A-NH2 (staple 1-4, 4-11) [Ac-PL3-Asp-Npg-B5-Asp-3COOHF-Ala-Ala-Phe-Leu-PyrS2-2F3MeF-BztA-[NHEt]GlnR-Ala-NH2]: the IC50 was 24 nM.

Take Ac-[αAllylPro]D[tBuAla][B5(5)]D[Phe(3-COOH)]AAFL[PyrS2″][Phe(2-CF3)][Bta][Me2Gln]A-NH2 (staple 1-4, 4-11) [Ac-PL3-Asp-Npg-B5-Asp-3COOHF-Ala-Ala-Phe-Leu-PyrS2-2F3MeF-BztA-Me2Gln-Ala-NH2]: the IC50 came out at 15 nM. This IC50 is about 1.6-fold lower than that of the molecule before.

Ac-[αAllylPro]D[tBuAla][B5(3)]D[TfeGA]AAFL[PyrS2″][3Thi][Bta][(NHEt)GlnR]A-NH2 (staple 1-4, 4-11) [Ac-PL3-Asp-Npg-B5-Asp-TfeGA-Ala-Ala-Phe-Leu-PyrS2-3Thi-BztA-[NHEt]GlnR-Ala-NH2] came in with an IC50 of 14 nM.

Ac-[αAllylPro]D[tBuAla][B5(5)]NT[Aib]AFN[PyrS2″][3Thi][Bta]L-NH2 (staple 1-4, 4-11) [Ac-PL3-Asp-Npg-B5-Asn-Thr-Aib-Ala-Phe-Asn-PyrS2-3Thi-BztA-Leu-NH2] yielded an IC50 of 627 nM.

Take Ac-[αAllylPro]D[tBuAla][B5(3)]D[Phe(3-COOH)][Aib]AF[Abu][PyrS2″][Phe(2-CF3)][Bta][Me2Gln]A-NH2 (staple 1-4, 4-11) [Ac-PL3-Asp-Npg-B5-Asp-3COOHF-Aib-Ala-Phe-Abu-PyrS2-2F3MeF-BztA-Me2Gln-Ala-NH2]: the IC50 came out at 38 nM. This IC50 lies about 16-fold lower than the previous one.

As to Ac-[αAllylPro]D[tBuAla][B5(5)]D[Phe(3-COOH)][Aib]AF[Abu][PyrS2″][3Thi][Bta][(Pip)GlnR]A-NH2 (staple 1-4, 4-11) [Ac-PL3-Asp-Npg-B5-Asp-3COOHF-Aib-Ala-Phe-Abu-PyrS2-3Thi-BztA-[Pip]GlnR-Ala-NH2], the half-inhibitory concentration (IC50) is 7 nM.

Ac-[αAllylPro]D[tBuAla][B5(3)]D[TfeGA]AAFL[PyrS2″][3Thi][Bta][Me2Gln]A-NH2 (staple 1-4, 4-11) [Ac-PL3-Asp-Npg-B5-Asp-TfeGA-Ala-Ala-Phe-Leu-PyrS2-3Thi-BztA-Me2Gln-Ala-NH2] gave an IC50 of 10 nM. This IC50 and that of the molecule before are within 1.5-fold of each other.

In the case of Ac-[αAllylPro]D[tBuAla][B5(3)]NT[Aib]AFN[PyrS2″][3Thi][Bta]Y-NH2 (staple 1-4, 4-11) [Ac-PL3-Asp-Npg-B5-Asn-Thr-Aib-Ala-Phe-Asn-PyrS2-3Thi-BztA-Tyr-NH2], the IC50 worked out at 310 nM.

As for Ac-[αAllylPro]D[tBuAla][B5(5)]D[TfeGA]AAFL[PyrS2″][3Thi][Bta][(Pip)GlnR]A-NH2 (staple 1-4, 4-11) [Ac-PL3-Asp-Npg-B5-Asp-TfeGA-Ala-Ala-Phe-Leu-PyrS2-3Thi-BztA-[Pip]GlnR-Ala-NH2], the IC50 was found to be 19 nM.

Molecule Ac-[αAllylPro]D[tBuAla][B5(3)]D[Phe(3-COOH)][Aib]AF[Abu][PyrS2″][3Thi][Bta][Me2Gln]A-NH2 (staple 1-4, 4-11) [Ac-PL3-Asp-Npg-B5-Asp-3COOHF-Aib-Ala-Phe-Abu-PyrS2-3Thi-BztA-Me2Gln-Ala-NH2] came in with an IC50 of 7 nM.

Molecule Ac-[αAllylPro]D[tBuAla][B5(5)]NT[Aib]AFN[PyrS2″][3Thi][Bta]W-NH2 (staple 1-4, 4-11) [Ac-PL3-Asp-Npg-B5-Asn-Thr-Aib-Ala-Phe-Asn-PyrS2-3Thi-BztA-Trp-NH2] registered a 50% inhibitory concentration (IC50) of 754 nM. Compared with the last molecule, the IC50 is about 110-fold higher.

Regarding Ac-[αAllylPro]D[tBuAla][B5(3)]D[Phe(3-COOH)]QAFL[PyrS2″][Phe(2-CF3)][2F3MeW]A-NH2 (staple 1-4, 4-11) [Ac-PL3-Asp-Npg-B5-Asp-3COOHF-Gln-Ala-Phe-Leu-PyrS2-2F3MeF-2F3MeW-Ala-NH2], the IC50 was 4750 nM.

In turn, Ac-[αAllylPro]D[tBuAla][B5(3)]D[Phe(3-COOH)]QAFL[PyrS2″][2F3MeF(3)][SbMe2NapA]A-NH2 (staple 1-4, 4-11) [Ac-PL3-Asp-Npg-B5-Asp-3COOHF-Gln-Ala-Phe-Leu-PyrS2-2F3MeF-SbMe2NapA-Ala-NH2] came in with an IC50 of 164 nM.

Ac-[αAllylPro]D[tBuAla][B5(5)]NT[Aib]AFN[PyrS2″][3Thi][Bta]V-NH2 (staple 1-4, 4-11) [Ac-PL3-Asp-Npg-B5-Asn-Thr-Aib-Ala-Phe-Asn-PyrS2-3Thi-BztA-Val-NH2]: the IC50 amounted to 475 nM.

Usually IC50 stands for the concentration that inhibits the measured activity by half. Low readings indicate greater potency, high ones weaker potency.
